The values below come from the RNAGym collection of RNA variant scans (doi:10.7554/elife.80360).

Sequences and labels used below:
B1: Twister Ribozyme (parent)
chain: AACACUGCCAAUGCCGGUCCCAAGCCCGGAUAAAAGUGGAGGGGGCGG

The variants in this series derive from B1. Description: self-cleavage, relative activity (ratio to wild type); higher = more cleavage; co-transcriptional.
Take AACACUUCCAAUGCCGGUCCCAAGCCCGGAUAAAAGUGUAGGGGGCGG [G7U G39U]: the self-cleavage was 0.0651. The same measure for AAUACUGCCAAUGCCGGUCCCAAGCCCGGAUAAAAGUGGAGGGGGAGG [C3U C46A]: 0.338; for AACACUGCCAAUGCCGGUCCCAAGCCCGGAAAAAAGUGGAGGGGACGG [U31A G45A]: 0.727. As for UACACUGCCAAUGCCGCUCCCAAGCCCGGAUAAAAGUGGAGGGGGCGG [A1U G17C], the self-cleavage stood at 0.055. For AACACUGCCAAUCCCGGUCCCAAGCCCGGAUAAAAGUGGAGGAGGCGG [G13C G43A], the self-cleavage turned out to be 0.0854. The same measure for AACCCUGCCAAUGCCGGUCCCAAGCCCAGAUAAAAGUGGAGGGGGCGG [A4C G28A]: 0.12; for AACACUGCCAAUGCCGGUCCCAAGCACGGAUACAAGUGGAGGGGGCGG [C26A A33C]: 0.359. As for AACACUGCCAAUGCCGGUCCCUAGCCCGGAGAAAAGUGGAGGGGGCGG [A22U U31G], the self-cleavage was 0.833. With AUCACUGGCAAUGCCGGUCCCAAGCCCGGAUAAAAGUGGAGGGGGCGG [A2U C8G], the self-cleavage was 0.0705. As for AACACUGCCAAUGCCGGUCACAAGCCCGGAGAAAAGUGGAGGGGGCGG [C20A U31G], the self-cleavage is 0.177.

For AACACUGCCAAUGCCUGUCCCAAGCCUGGAUAAAAGUGGAGGGGGCGG [G16U C27U], the self-cleavage is 1.16. As to AACACUGCCAAUUCCGGUCCCUAGCCCGGAUAAAAGUGGAGGGGGCGG [G13U A22U], the self-cleavage turned out to be 0.174. In the case of AACACUGCCUAUGCCGGUCCCAAGCCCGGAUAAAAGAGGAGGGGGCGG [A10U U37A], the self-cleavage stood at 0.86. With AACACGGCCAAUGCCGGUCCCAAGCCGGGAUAAAAGUGGAGGGGGCGG [U6G C27G], the self-cleavage is 0.0245. Regarding AUCACUGCCAAUGCCGGUCCCAAGCCCGGAUAAAAGUGGAGGGGGCGA [A2U G48A], the self-cleavage is 0.353. For the variant AACACUGCCAAUGGCGGUCCCAAGCCCGGAGAAAAGUGGAGGGGGCGG [C14G U31G], the self-cleavage worked out at 0.158.

Take AUCACUGCCAAUGCCGGUCCAAAGCCCGGAUAAAAGUGGAGGGGGCGG [A2U C21A]: the self-cleavage is 0.0621. As for AACACUGCCAAUGCCGUUCCCAAGCCCGGAUAAAAGUGGAGGGGGCAG [G17U G47A], the self-cleavage amounted to 0.237. The result for AACACUGCCAAUGCCGGUCCCAAGCCUGGAUAAAAGUGUAGGGGGCGG [C27U G39U] reads 0.168; that for AUCACUGCCAAUGCCGGUCCCAAGCCCGGAGAAAAGUGGAGGGGGCGG [A2U U31G], 0.626. Regarding AACACUGCCAAUGCCGGUCCCACGGCCGGAUAAAAGUGGAGGGGGCGG [A23C C25G], the self-cleavage was 0.0881. Regarding AACACUGCCAAUGCUGGUCCCAAGCCCGGAUAAAAGUUGAGGGGGCGG [C15U G38U], the self-cleavage was determined as 0.76. The same measure for AACACUGCCAAUGACGGUUCCAAGCCCGGAUAAAAGUGGAGGGGGCGG [C14A C19U]: 1.07; for AACACAGCCAAUGCCGGUGCCAAGCCCGGAUAAAAGUGGAGGGGGCGG [U6A C19G]: 0.0747; for AACACUGCCAAUGCCGGUCCCAAACCCGGAUAAUAGUGGAGGGGGCGG [G24A A34U]: 0.0893. As to AACACUGCCAAUGCCGGUCCCAAUCCCGGAUAAAAGUGGAGGGGGCCG [G24U G47C], the self-cleavage is 0.131. As to AGCACUGCCAAUGCCGGUCCCAAGCCCGGAUAAAAGUGGAGGGGGCAG [A2G G47A], the self-cleavage came to 0.232. The result for AACACUGCCAAUGCCGGUCCCAAGCCCGGAUAAAAGUGAGGGGGGCGG [G39A A40G] reads 0.145; that for AACACUGCCAAUGCCGGUCCCAAGCGCGGAUUAAAGUGGAGGGGGCGG [C26G A32U], 0.193. For AACACUGACUAUGCCGGUCCCAAGCCCGGAUAAAAGUGGAGGGGGCGG [C8A A10U], the self-cleavage was 0.239. Turning to AACACUGCCAAUGCCGGUCCCAAGCCCGGAUAAAAGUGAAGGGGGUGG [G39A C46U], the self-cleavage was determined as 0.445. For AACACUGCCAAUGCCGGUCCCAAGCCCGGAGAAAAGUGGAGGUGGCGG [U31G G43U], the self-cleavage stood at 0.467. AACACUGCCAAUGCCGGUCUCAAGCCCGGACAAAAGUGGAGGGGGCGG [C20U U31C]: the self-cleavage worked out at 1.03. Take AACACUGCCAAUGCCGGUCAGAAGCCCGGAUAAAAGUGGAGGGGGCGG [C20A C21G]: the self-cleavage is 0.0829. The result for UACACUGCCAAUGCCGGGCCCAAGCCCGGAUAAAAGUGGAGGGGGCGG [A1U U18G] reads 0.0681; that for AACACUGCCAAUGCCGGUCCCAUGCCCGGAUAAAAGUGGAGCGGGCGG [A23U G42C], 0.148. Regarding AACAUUGCCAAUGCCGGUCCCAAGCCCGGGUAAAAGUGGAGGGGGCGG [C5U A30G], the self-cleavage came out at 0.784. For CACACUGCCAAUGCCGGUCCCAAGCACGGAUAAAAGUGGAGGGGGCGG [A1C C26A], the self-cleavage was 0.171. In the case of AACACUGACAAUGCCGGUCCCAAGCCCGGAUAAAAGUGGCGGGGGCGG [C8A A40C], the self-cleavage was 0.113.

With AACACUGCCAAUGCCGGUCCCAAGCCCGGAUAAAAGAGGAGGGUGCGG [U37A G44U], the self-cleavage was 0.755.

Consider AACACUGCCAAUGCCGGUCCCAAACCCGGAUAAAAGUGGAGGGUGCGG [G24A G44U], for which the self-cleavage came out at 0.0885.

In the case of AACACGGCCAAUGCCGGUCCCAAGCCCGGAUACAAGUGGAGGGGGCGG [U6G A33C], the self-cleavage stood at 0.367. On to AACACUGCCAAUGCCGGUCCCAAGCCCAGAUAAAACUGGAGGGGGCGG [G28A G36C], for which the self-cleavage is 0.131. Regarding AACACUGCCAAUGUCGGUCCCAACCCCGGAUAAAAGUGGAGGGGGCGG [C14U G24C], the self-cleavage worked out at 0.102. For AACACUGCGAAUGCCGGUCCCAAGCCCGGAUAAAAGUGGCGGGGGCGG [C9G A40C], the self-cleavage worked out at 0.102. In the case of AACACUGCCAAUGCAGGUCCCAAGCCCGGAUACAAGUGGAGGGGGCGG [C15A A33C], the self-cleavage was determined as 0.538. In the case of AACACUGCCAAUGCCGGUCGCAAGCCCAGAUAAAAGUGGAGGGGGCGG [C20G G28A], the self-cleavage came out at 0.141. With AACACUCCCAAGGCCGGUCCCAAGCCCGGAUAAAAGUGGAGGGGGCGG [G7C U12G], the self-cleavage is 0.0541. For the variant AACACUGCCAAUACCGGUACCAAGCCCGGAUAAAAGUGGAGGGGGCGG [G13A C19A], the self-cleavage came out at 0.113. For the variant AACACAGCCAAUGCGGGUCCCAAGCCCGGAUAAAAGUGGAGGGGGCGG [U6A C15G], the self-cleavage is 0.0866. For the variant AACACUGCCAAUGCCGGUCCCAAGCCCGGAUCAAAGUGGAGGGGGAGG [A32C C46A], the self-cleavage was found to be 0.837. On to AACACUGCCAACGCCGGUCCCAAGCCCGGGUAAAAGUGGAGGGGGCGG [U12C A30G], for which the self-cleavage came to 0.712.

On to AAGACAGCCAAUGCCGGUCCCAAGCCCGGAUAAAAGUGGAGGGGGCGG [C3G U6A], for which the self-cleavage was 0.13.

Turning to AACACCGCCAAUGCCGGUCCCAAGACCGGAUAAAAGUGGAGGGGGCGG [U6C C25A], the self-cleavage was found to be 0.108.
